In patent US20150322414A1 (UNITED KINGDOM RESEARCH AND INNOVATION, published 2015):

Columns and labels:
[1] = target: Wild-type human Tie2 ectodomain (residues 1-442) surface expression construct on DT40 cells (human) (UniProt P09619); test: flow cytometry, ligand titrated on DT40 cells displaying wild-type Tie2 ectodomain; apparent Kd
Angiopoietin-2 [2] = target: T1, Angiopoietin-2 (human, UniProt O15123 19-496, limits assumed); test: SPR (ForteBio Octet), ectodomain-Fc immobilised; wild-type ectodomain
T1 construct: also called Ang2; biotinylated Ang2
T1 sequence (looked up): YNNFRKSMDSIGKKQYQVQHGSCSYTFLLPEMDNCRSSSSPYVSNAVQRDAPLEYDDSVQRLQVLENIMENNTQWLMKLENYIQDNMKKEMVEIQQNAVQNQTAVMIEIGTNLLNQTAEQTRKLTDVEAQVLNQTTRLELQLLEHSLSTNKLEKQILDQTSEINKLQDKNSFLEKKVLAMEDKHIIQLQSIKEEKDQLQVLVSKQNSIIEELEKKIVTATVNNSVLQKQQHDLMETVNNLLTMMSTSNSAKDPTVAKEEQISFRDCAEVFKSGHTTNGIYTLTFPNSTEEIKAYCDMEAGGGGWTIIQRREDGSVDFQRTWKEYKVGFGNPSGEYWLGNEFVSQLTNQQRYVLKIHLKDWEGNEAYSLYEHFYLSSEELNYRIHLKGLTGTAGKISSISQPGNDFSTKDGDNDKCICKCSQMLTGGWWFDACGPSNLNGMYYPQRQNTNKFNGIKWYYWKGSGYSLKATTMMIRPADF
Description: (§1) Surface plasmon resonance was performed using a ForteBio Octet instrument (Pall Life Sciences). Fusion proteins were immobilised at 5 μg/ml on sensors and kinetic binding assays perfoinied as detailed by the manufacturer.

Angiopoietin-2 [3] = target: T1, Angiopoietin-2; test: SPR as named in the filing, panel headed 'Binding of R3 and R3 I161G binding to Ang2', concentrations not given
Description: as §1

Angiopoietin-1 [4] = target: T2, Angiopoietin-1 (human, UniProt Q15389 20-498, limits assumed); test: SPR as named in the filing, panel headed 'Binding of Wt and R3 I161G mutant to Ang1', concentrations not given
T2 construct: also called Ang1; His6-tagged Ang1
T2 sequence (looked up): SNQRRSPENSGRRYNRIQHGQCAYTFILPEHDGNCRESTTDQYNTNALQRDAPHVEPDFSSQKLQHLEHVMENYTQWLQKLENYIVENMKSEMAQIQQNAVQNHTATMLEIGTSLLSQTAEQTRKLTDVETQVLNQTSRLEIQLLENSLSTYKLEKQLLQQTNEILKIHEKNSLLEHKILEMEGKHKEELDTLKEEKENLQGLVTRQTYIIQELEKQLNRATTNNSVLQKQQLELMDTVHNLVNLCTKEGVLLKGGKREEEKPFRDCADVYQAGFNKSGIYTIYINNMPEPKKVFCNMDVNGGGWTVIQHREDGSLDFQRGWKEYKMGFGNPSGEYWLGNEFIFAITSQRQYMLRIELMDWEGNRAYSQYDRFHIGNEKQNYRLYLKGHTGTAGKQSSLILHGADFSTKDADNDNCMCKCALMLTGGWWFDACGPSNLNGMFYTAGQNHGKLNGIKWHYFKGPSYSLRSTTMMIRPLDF
Description: as §1

Angiopoietin-1 [5] = target: T2, Angiopoietin-1; test: SPR as named in the filing (ForteBio Octet), ectodomain-Fc immobilised on the sensor, Ang1 in solution, concentrations not given
Description: as §1

Angiopoietin-2 [6] = target: T1, Angiopoietin-2; test: SPR (ForteBio Octet), ectodomain-Fc immobilised; evolved (R3) ectodomain
Description: as §1

Chain of Wild-type human Tie2 ectodomain (residues 1-442) surface expression construct on DT40 cells (human) (P09619 514-562 limits assumed, form in doubt): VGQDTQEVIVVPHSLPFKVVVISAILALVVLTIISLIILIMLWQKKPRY

Question: How did the Kd [1] turn out when “Angiopoietin-1 (from UniProt Q15389 20-498) (ligand)” was run?
Answer: Its Kd is 0.7 nM.

B1: Wild-type Tie2 ectodomain (1-442)-Fc fusion protein (Fc fusion)
chain (part 1 of 2): AMDLILINSLPLVSDAETSLTCIASGWRPHEPITIGRDFEALMNQHQDPLEVTQDVTREWAKKVVWKREKASKINGAYFCEGRVRGEAIRIRTMKMRQQASFLPATLTMTVDKGDNVNISFKKVLIKEEDAVIYKNGSFIHSVPRHEVPDILEVHLPHAQPQDAGVYSARYIGGNLFTSAFTRLIVRRCEAQKWGPECNHLCTACMNNGVCHEDTGECICPPGFMGRTCEKACELHTFGRTCKERCSGQEGCKSYVFCLPDPYGCSCATGWKGLQCNEACHPGFYGPDCKLRCSCNNGEMCDRFQGCLCSPGWQGLQCEREGIQRMTPKIVDLPDHIEVNSGKFNPICKASGWPLPTNEEMTLVKPDGTVLHPKDFNHTDHFSVAIFTIHRILPPDSGVWVCSVNTVAGMVEKPFNISVK
chain (part 2 of 2): HHHHHH
notes: Secreted from HEK293 cells, about 80 kDa, purified on Ni-NTA; also called wild-type ectodomain; Wt; not shown: human Fc tag
Question: B1 was tested. Which Kd (Angiopoietin-2 [2]) did it give?
Answer: Its Kd is 4.1 nM.

B2: R3 I161G mutant Tie2 ectodomain (Glycine at 161, deleted at R167 and H168) (Fc fusion)
chain: AMDLILINSLPLVSDAETSLTCIASGWRPHEPITIGRDFEALMNQHQDPLEVTQDVTREWAKKVVWKREKASKINGAYFCEGRVRGEAIRIRTMKMRQQASFLPATLTMTVDKGDNVNISFKKVLIKEEDAVIYKNGSGIHSVPEVPDILEVHLPHAQPQDAGVYSARYIGGNLFTSAFTRLIVRRCEAQKWGPECNHLCTACMNNGVCHEDTGECICPPGFMGRTCEKACELHTFGRTCKERCSGQEGCKSYVFCLPDPYGCSCATGWKGLQCNEACHPGFYGPDCKLRCSCNNGEMCDRFQGCLCSPGWQGLQCEREGIQRMTPKIVDLPDHIEVNSGKFNPICKASGWPLPTNEEMTLVKPDGTVLHPKDFNHTDHFSVAIFTIHRILPPDSGVWVCSVNTVAGMVEKPFNISVK
notes: also called new mutant; improved Ang2 ligand-trap; not shown: the other soluble ectodomains carried a human Fc tag and His6
Question: What does the source list for B2?
Answer: binding result (Angiopoietin-2 [3]): binds; binding result (Angiopoietin-1 [4]): no binding

B3: Evolved (R3) Tie2 ectodomain-Fc fusion protein (F161I, ΔR167, ΔH168) (Fc fusion)
chain (part 1 of 2): AMDLILINSLPLVSDAETSLTCIASGWRPHEPITIGRDFEALMNQHQDPLEVTQDVTREWAKKVVWKREKASKINGAYFCEGRVRGEAIRIRTMKMRQQASFLPATLTMTVDKGDNVNISFKKVLIKEEDAVIYKNGSIIHSVPEVPDILEVHLPHAQPQDAGVYSARYIGGNLFTSAFTRLIVRRCEAQKWGPECNHLCTACMNNGVCHEDTGECICPPGFMGRTCEKACELHTFGRTCKERCSGQEGCKSYVFCLPDPYGCSCATGWKGLQCNEACHPGFYGPDCKLRCSCNNGEMCDRFQGCLCSPGWQGLQCEREGIQRMTPKIVDLPDHIEVNSGKFNPICKASGWPLPTNEEMTLVKPDGTVLHPKDFNHTDHFSVAIFTIHRILPPDSGVWVCSVNTVAGMVEKPFNISVK
chain (part 2 of 2): HHHHHH
notes: also called R3 ectodomain; evolved ectodomain; not shown: human Fc tag
Question: Does B3 bind (Angiopoietin-1 [5])?
Answer: Result: no binding

Question: What about the Kd (Angiopoietin-2 [6]) of the same molecule?
Answer: Its Kd is 2.4 nM.
